According to paper doi:10.1101/2025.06.13.659598:

How the values were obtained:
[1] = target: nesprin-2G SR11-12 (spectrin repeats 11-12 of human nesprin-2) (human); assay: BLI
[2] = target: nesprin-2G SR11-13 (spectrin repeats 11-13 of human nesprin-2) (human); assay: BLI

B1: FHOD1 SRBD-DID (amino terminal construct of human FHOD1) (domain or fragment)
chain: SVVTVRVQYLEDTDPFACANFPEPRRAPTCSLDGALPLGAQIPAVHRLLGAPLKLEDCALQVSPSGYYLDTELSLEEQREMLEGFYEEISKGRKPTLILRTQLSVRVNAILEKLYSSSGPELRRSLFSLKQIFQEDKDLVPEFVHSEGLSCLIRVGAAADHNYQSYILRALGQLMLFVDGMLGVVAHSDTIQWLYTLCASLSRLVVKTALKLLLVFVEYSENNAPLFIRAVNSVASTTGAPPWANLVSILEEKNGADPELLVYTVTLINKTLAALPDQDSFYDVTDALEQQGMEALVQRHLGTAGTDVDLRTQLVLYENAL
Kd [1]: 472 nM | Kd [2]: 92 nM
